The record followed here is publication PMC4303003, “Repressive mutations restore function-loss caused by the disruption of trimerization in Escherichia coli multidrug transporter AcrB” (Frontiers in Microbiology, 2015).

The series deals with the molecule itself. Nature of the series: native gel or EMSA; BN-PAGE of purified AcrB proteins; loading buffer with 1% dodecylmaltoside, 0.1% Coomassie G-250, pH 7.0; 4-15% gradient gel, 15 mA, 4°C, 2 h; trimer and monomer bands quantified with ImageJ; trimer to monomers. On the technique in general: Mobility shift assays separate free from complexed probe on a gel.

B1: wild type AcrB (Escherichia coli multidrug transporter AcrB) (natural protein)
chain: MPNFFIDRPIFAWVIAIIIMLAGGLAILKLPVAQYPTIAPPAVTISASYPGADAKTVQDTVTQVIEQNMNGIDNLMYMSSNSDSTGTVQITLTFESGTDADIAQVQVQNKLQLAMPLLPQEVQQQGVSVEKSSSSFLMVVGVINTDGTMTQEDISDYVAANMKDAISRTSGVGDVQLFGSQYAMRIWMNPNELNKFQLTPVDVITAIKAQNAQVAAGQLGGTPPVKGQQLNASIIAQTRLTSTEEFGKILLKVNQDGSRVLLRDVAKIELGGENYDIIAEFNGQPASGLGIKLATGANALDTAAAIRAELAKMEPFFPSGLKIVYPYDTTPFVKISIHEVVKTLVEAIILVFLVMYLFLQNFRATLIPTIAVPVVLLGTFAVLAAFGFSINTLTMFGMVLAIGLLVDDAIVVVENVERVMAEEGLPPKEATRKSMGQIQGALVGIAMVLSAVFVPMAFFGGSTGAIYRQFSITIVSAMALSVLVALILTPALCATMLKPIAKGDHGEGKKGFFGWFNRMFEKSTHHYTDSVGGILRSTGRYLVLYLIIVVGMAYLFVRLPSSFLPDEDQGVFMTMVQLPAGATQERTQKVLNEVTHYYLTKEKNNVESVFAVNGFGFAGRGQNTGIAFVSLKDWADRPGEENKVEAITMRATRAFSQIKDAMVFAFNLPAIVELGTATGFDFELIDQAGLGHEKLTQARNQLLAEAAKHPDMLTSVRPNGLEDTPQFKIDIDQEKAQALGVSINDINTTLGAAWGGSYVNDFIDRGRVKKVYVMSEAKYRMLPDDIGDWYVRAADGQMVPFSAFSSSRWEYGSPRLERYNGLPSMEILGQAAPGKSTGEAMELMEQLASKLPTGVGYDWTGMSYQERLSGNQAPSLYAISLIVVFLCLAALYESWSIPFSVMLVVPLGVIGALLAATFRGLTNDVYFQVGLLTTIGLSAKNAILIVEFAKDLMDKEGKGLIEATLDAVRMRLRPILMTSLAFILGVMPLVISTGAGSGAQNAVGTGVMGGMVTATVLAIFFVPVFFVVVRRRFSRKNEDIEHSHTVDHH
notes: AcrB, inner membrane RND multidrug transporter of Escherichia coli, encoded on plasmid pQE70-AcrB; also called WT AcrB; WT; source: E. coli BW25113ΔacrB transformed with pQE70-AcrB (in cells for cross-linking); purified as described (Lu et al., 2011) for BN-PAGE
Turning to B1, the binding result is “binds”.
